Assay results published in PMC11156904, “Nucleic acid mediated activation of a short prokaryotic Argonaute immune system”.
“And” between values parts separate entries of the source, which are not always exact repeats. Equal values may be shown once.

T1: CrtSPARTA TIR-APAZ;CrtSPARTA short pAgo loop10-9 deletion (Crenotalea thermophila;Crenotalea …, UniProt A0A1I7NFG5;A0A1I7NFD7 1-450;1-507, |del322-327)
T1 sequence 1: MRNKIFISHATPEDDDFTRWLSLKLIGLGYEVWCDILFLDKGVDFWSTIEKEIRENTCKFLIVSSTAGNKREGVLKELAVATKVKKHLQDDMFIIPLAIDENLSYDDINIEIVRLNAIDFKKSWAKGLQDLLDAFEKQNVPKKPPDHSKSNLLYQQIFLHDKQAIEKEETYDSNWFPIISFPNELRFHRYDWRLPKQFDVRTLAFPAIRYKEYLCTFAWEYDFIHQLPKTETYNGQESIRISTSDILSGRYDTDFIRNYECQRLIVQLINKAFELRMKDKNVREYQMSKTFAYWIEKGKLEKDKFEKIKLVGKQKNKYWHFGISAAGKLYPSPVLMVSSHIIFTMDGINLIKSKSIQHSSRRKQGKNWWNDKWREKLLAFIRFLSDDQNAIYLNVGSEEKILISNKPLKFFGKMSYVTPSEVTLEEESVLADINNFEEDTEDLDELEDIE
T1 sequence 2: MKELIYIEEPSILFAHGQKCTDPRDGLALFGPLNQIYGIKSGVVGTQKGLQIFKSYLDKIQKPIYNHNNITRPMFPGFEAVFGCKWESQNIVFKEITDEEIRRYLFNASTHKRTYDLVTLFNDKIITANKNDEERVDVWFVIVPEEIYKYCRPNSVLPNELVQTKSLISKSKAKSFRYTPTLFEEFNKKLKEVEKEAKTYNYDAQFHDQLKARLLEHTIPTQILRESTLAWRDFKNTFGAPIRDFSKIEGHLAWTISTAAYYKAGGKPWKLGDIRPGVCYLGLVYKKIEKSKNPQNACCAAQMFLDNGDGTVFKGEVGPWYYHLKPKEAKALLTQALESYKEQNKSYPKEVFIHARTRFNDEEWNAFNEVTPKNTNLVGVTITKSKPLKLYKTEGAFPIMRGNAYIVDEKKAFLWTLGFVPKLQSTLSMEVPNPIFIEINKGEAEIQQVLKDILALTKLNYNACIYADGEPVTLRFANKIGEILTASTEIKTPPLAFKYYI

T2: CrtSPARTA TIR-APAZ;CrtSPARTA short pAgo (CrtAgo) (Crenotalea thermophila;Crenotalea …, UniProt A0A1I7NFG5;A0A1I7NFD7 1-450;1-507, |)
T2 sequence 1: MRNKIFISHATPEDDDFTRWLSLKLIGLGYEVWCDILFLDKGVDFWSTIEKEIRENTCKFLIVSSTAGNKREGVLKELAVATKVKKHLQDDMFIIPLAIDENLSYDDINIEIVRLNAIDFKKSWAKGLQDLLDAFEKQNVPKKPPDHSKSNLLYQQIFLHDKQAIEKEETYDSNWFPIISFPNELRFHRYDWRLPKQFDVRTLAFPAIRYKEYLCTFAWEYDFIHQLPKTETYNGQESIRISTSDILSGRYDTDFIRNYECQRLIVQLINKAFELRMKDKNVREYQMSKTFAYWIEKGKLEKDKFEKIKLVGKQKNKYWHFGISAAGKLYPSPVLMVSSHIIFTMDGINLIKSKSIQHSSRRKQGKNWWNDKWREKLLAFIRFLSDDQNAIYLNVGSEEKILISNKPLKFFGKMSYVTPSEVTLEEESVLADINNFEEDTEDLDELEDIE
T2 sequence 2: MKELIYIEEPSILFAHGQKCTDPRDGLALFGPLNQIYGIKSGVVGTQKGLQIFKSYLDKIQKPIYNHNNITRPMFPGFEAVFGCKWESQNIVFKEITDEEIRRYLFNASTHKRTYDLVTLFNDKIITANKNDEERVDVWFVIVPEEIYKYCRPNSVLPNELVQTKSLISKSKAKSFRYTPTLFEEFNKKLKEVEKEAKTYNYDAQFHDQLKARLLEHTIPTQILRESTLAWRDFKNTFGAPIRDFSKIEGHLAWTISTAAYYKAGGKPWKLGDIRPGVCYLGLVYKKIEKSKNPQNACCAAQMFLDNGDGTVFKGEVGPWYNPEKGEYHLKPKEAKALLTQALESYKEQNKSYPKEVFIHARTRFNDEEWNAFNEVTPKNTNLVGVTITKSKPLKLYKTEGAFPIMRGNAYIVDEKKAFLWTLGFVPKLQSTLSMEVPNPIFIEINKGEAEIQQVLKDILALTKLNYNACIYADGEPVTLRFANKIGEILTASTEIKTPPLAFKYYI


What was measured:
[1] = biological target: SPARTA heterodimer (TIR-APAZ/short pAgo complex) from Crenotalea thermophila (Crenotalea thermophila); experiment: mass photometry; CrtSPARTA incubated with gRNA/tDNA (5 mM MgCl2, 55 °C, 12 hours), 100-fold diluted, in 20 mM HEPES pH 7.5, 100 mM KCl, 2 mM DTT
[2] = biological target: SPARTA heterodimer (TIR-APAZ/short pAgo complex) from Crenotalea thermophila (Crenotalea thermophila); experiment: cryo-EM structure; SPARTA oligomer bound to gRNA/tDNA, nominal 3.15-3.35 Å
[3] = biological target: T1, CrtSPARTA TIR-APAZ;CrtSPARTA short pAgo …; experiment: mass photometry; binds as single heterodimer (~134.6 kDa, expected 132.6); loses dimer formation; 20 mM HEPES pH 7.5, 100 mM KCl, 1 mM DTT, 5 mM MgCl2; 1.5 mg/ml SPARTA, 16 uM gRNA 37 C 1 h, then 16 uM tDNA 55 C 12 h; details: protein: recombinant;recombinant; tags: 6xHis-MBP removed by TEV;none stated on this chain; copies: 1;1; 21 bp; tDNA 5' overhang 23 nt and 3' overhang 1 nt; guide loaded first, then target
[4] = biological target: T2, CrtSPARTA TIR-APAZ;CrtSPARTA short pAgo …; experiment: cryo-EM structure; 5 mM MgCl2; Mg2+ seen in MID pocket; 4 heterodimers, one duplex each; 20 mM HEPES pH 7.5, 100 mM KCl, 1 mM DTT, 5 mM MgCl2; 1.5 mg/ml SPARTA, 16 uM gRNA 37 C 1 h, then 16 uM tDNA 55 C 12 h; details: protein: recombinant;recombinant; tags: 6xHis-MBP removed by TEV;none stated on this chain; copies: 1;1; 21 bp; tDNA 5' overhang 23 nt and 3' overhang 1 nt; guide loaded first, then target

stoichiometry N [1] | stoichiometry N [2] | Molecule | binding result [3] | binding result [4]
2 and 4 | 4 | SPARTA heterodimer (TIR-APAZ/short pAgo complex) from Crenotalea thermophila | – | –
– | – | gRNA/tDNA duplex (DNA:RNA, 5'-phosphate on guide RNA) RNA: UGAGGUAGUAGGUUGUAUAGU DNA: AAACGACGGCCAGTGCCAAGCTTACTATACAACCTACTACCTCAT | binds | binds
